From patent publication US5668264, “High affinity PDGF nucleic acid ligands” (NeXstar Pharmaceuticals, Inc.)

B1: ssDNA ligand 38 (ssDNA)
DNA: ATCCGCCTGATTAGCGATACTAAAGTCGTGCAGGGTCCCCTGGAAGCATCTCCGATCCCAGACTTGAGCAAAATCACCTGCAGGGG
B2: ssDNA ligand 26 (ssDNA)
DNA: ATCCGCCTGATTAGCGATACTAGAGGGGAAGTAGGCTGCCTGACTCGAGAGAGTCCTCCCGACTTGAGCAAAATCACCTGCAGGGG
B3: ssDNA ligand 40 (ssDNA)
DNA: ATCCGCCTGATTAGCGATACTAGTGGAACAGGGCACGGAGAGTCAAACTTTGGTTTCCCCCACTTGAGCAAAATCACCTGCAGGGG
B4: ssDNA ligand 36 (ssDNA)
DNA: ATCCGCCTGATTAGCGATACTCCACAGGCTACGGCACGTAGAGCATCACCATGATCCTGTGACTTGAGCAAAATCACCTGCAGGGG
B5: 41t (ssDNA)
DNA: TACTCAGGGCACTGCAAGCAATTGTGGTCCCAATGGGCTGAGTAT
modifications: 3'-3' inverted T at 3' end
B6: 36t (ssDNA)
DNA: CCACAGGCTACGGCACGTAGAGCATCACCATGATCCTGTGT
modifications: 3'-3' inverted T at 3' end
B7: 20t-a (ssDNA)
DNA: TGGGAGGGCGCGTTCTTCGTGGTTACTTTTAGTCCCGT
modifications: 3'-3' inverted T at 3' end (described for truncated ligands)
B8: ssDNA ligand 14 (ssDNA)
DNA: ATCCGCCTGATTAGCGATACTAGGCTTGACAAAGGGCACCATGGCTTAGTGGTCCTAGTACTTGAGCAAAATCACCTGCAGGGG

What was measured:
PDGF AB [1] = target: T1, PDGF AB (Homo sapiens, UniProt P04085;P01127 P04085:87-211,P01127:82-190); experiment: filter; among seven highest affinity ligands; data not shown; conditions: tags: R&D Systems 222-AB; chain copies: A/B chain heterodimer (inferred)
PDGF AB [2] = target: T1, PDGF AB; experiment: filter; biphasic, higher affinity component; conditions: tags: R&D Systems 222-AB; chain copies: A/B chain heterodimer (inferred)
Experimental: (§1) 22: 1859), and the equilibrium dissociation constants were determined by nitrocellulose filter binding. […] […]-[…]-3') SEQ ID NO: 88, and 26t (5'-[…] T-3') SEQ ID NO: 89.
(§2) The binding data were analyzed according the formalism described in Jellinek et al., 1994: supra.

PDGF BB = PDGF BB (UniProt P01127 P01127:82-190); experiment: filter; biphasic, higher affinity component; conditions: chain copies: BB homodimer (inferred)
Experimental: as §1, §2

PDGF AA = PDGF AA (UniProt P04085 P04085:87-211); experiment: filter; monophasic; conditions: chain copies: AA homodimer (inferred)
Description: […]-[…]-3') SEQ ID NO: 88, and 26t (5'-[…] T-3') SEQ ID NO: 89.

Sequence of PDGF BB (P01127 82-190, one chain of several): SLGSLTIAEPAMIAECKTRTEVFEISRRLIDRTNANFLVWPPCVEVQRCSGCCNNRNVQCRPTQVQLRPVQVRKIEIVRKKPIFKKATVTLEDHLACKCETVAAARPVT
T1 sequence (P01127 82-190, chain 2 of 2, other chains not shown): as the sequence (P01127 82-190, one chain of several) above

Binder | binding result (PDGF AB [1]) | Kd (PDGF AB [2]) [pM] | Kd (PDGF BB) [pM] | Kd (PDGF AA) [pM]
B1 | binds | – | – | –
B2 | binds | – | – | –
B3 | binds | – | – | –
B4 | binds | – | – | –
B5 | – | 51 | 56 | –
B6 | – | 82 | 54 | 72000
B7 | – | 82 | 90 | –
B8 | binds | – | – | –
